Results from US12012619B2, “Methods of use for an NADPH-regeneration system based on a monomeric isocitrate dehydrogenase” (INDUSTRY FOUNDATION OF CHONNAM NATIONAL UNIVERSITY, priority 2021, dated 2024).

T1: CgIDH (Corynebacterium glutamicum, UniProt P50216)
T1 construct: His-tag (His6, pET24a-derived LEHHHHHH) (C); made in house; host or cells: E. coli BL21 (DE3)
T1 sequence (P50216 with tags, fused parts or gaps): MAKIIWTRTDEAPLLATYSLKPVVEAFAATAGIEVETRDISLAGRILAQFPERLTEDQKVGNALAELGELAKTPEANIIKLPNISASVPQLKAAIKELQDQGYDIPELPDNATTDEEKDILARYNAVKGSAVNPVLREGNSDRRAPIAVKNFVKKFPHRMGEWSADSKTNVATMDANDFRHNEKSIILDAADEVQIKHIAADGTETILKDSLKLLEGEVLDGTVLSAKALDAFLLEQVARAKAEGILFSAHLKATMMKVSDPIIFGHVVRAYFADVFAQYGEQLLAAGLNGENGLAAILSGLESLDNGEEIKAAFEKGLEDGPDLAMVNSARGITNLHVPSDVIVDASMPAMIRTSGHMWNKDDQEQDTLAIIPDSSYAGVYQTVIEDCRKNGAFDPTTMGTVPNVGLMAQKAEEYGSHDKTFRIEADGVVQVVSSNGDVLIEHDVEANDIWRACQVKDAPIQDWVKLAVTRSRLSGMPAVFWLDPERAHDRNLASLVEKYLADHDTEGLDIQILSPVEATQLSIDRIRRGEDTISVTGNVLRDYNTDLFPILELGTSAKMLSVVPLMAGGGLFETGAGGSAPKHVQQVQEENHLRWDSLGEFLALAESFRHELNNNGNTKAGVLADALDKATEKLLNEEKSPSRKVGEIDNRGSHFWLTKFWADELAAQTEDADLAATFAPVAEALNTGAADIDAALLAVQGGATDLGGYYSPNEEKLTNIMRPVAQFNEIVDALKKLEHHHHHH

T2: AvIDH (Azotobacter vinelandii, UniProt P16100)
T2 construct: His-tag (His6, pET24a-derived LEHHHHHH) (C); made in house; host or cells: E. coli BL21 (DE3)
T2 sequence (P16100 with tags, fused parts or gaps): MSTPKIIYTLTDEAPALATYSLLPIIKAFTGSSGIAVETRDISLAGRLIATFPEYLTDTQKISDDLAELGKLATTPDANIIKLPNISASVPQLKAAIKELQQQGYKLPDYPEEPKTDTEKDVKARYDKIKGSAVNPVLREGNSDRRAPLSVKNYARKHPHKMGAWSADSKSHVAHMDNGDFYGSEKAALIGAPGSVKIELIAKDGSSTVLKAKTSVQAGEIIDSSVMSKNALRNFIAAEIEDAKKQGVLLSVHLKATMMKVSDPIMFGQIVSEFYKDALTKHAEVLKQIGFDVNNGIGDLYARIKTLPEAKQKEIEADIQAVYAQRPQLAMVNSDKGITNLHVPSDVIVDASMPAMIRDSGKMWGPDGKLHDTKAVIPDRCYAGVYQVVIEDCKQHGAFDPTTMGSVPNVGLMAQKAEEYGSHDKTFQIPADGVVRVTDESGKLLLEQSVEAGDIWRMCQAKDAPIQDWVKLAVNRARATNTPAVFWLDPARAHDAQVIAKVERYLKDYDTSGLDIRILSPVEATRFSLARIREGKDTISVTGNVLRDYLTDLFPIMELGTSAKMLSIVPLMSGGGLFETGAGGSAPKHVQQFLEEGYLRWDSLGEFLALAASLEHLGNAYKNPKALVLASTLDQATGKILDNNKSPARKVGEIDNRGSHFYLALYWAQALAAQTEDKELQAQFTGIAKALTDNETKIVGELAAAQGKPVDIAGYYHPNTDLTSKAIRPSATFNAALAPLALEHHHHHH

B1: CgIDH: recombinant monomeric isocitrate dehydrogenase from Corynebacterium glutamicum, SEQ ID NO: 1, C-terminal histidine tag (protein)
chain: MAKIIWTRTDEAPLLATYSLKPVVEAFAATAGIEVETRDISLAGRILAQFPERLTEDQKVGNALAELGELAKTPEANIIKLPNISASVPQLKAAIKELQDQGYDIPELPDNATTDEEKDILARYNAVKGSAVNPVLREGNSDRRAPIAVKNFVKKFPHRMGEWSADSKTNVATMDANDFRHNEKSIILDAADEVQIKHIAADGTETILKDSLKLLEGEVLDGTVLSAKALDAFLLEQVARAKAEGILFSAHLKATMMKVSDPIIFGHVVRAYFADVFAQYGEQLLAAGLNGENGLAAILSGLESLDNGEEIKAAFEKGLEDGPDLAMVNSARGITNLHVPSDVIVDASMPAMIRTSGHMWNKDDQEQDTLAIIPDSSYAGVYQTVIEDCRKNGAFDPTTMGTVPNVGLMAQKAEEYGSHDKTFRIEADGVVQVVSSNGDVLIEHDVEANDIWRACQVKDAPIQDWVKLAVTRSRLSGMPAVFWLDPERAHDRNLASLVEKYLADHDTEGLDIQILSPVEATQLSIDRIRRGEDTISVTGNVLRDYNTDLFPILELGTSAKMLSVVPLMAGGGLFETGAGGSAPKHVQQVQEENHLRWDSLGEFLALAESFRHELNNNGNTKAGVLADALDKATEKLLNEEKSPSRKVGEIDNRGSHFWLTKFWADELAAQTEDADLAATFAPVAEALNTGAADIDAALLAVQGGATDLGGYYSPNEEKLTNIMRPVAQFNEIVDALKKLEHHHHHH
modifications: C-terminal His tag; CgIDH protein
B2: AvIDH: recombinant monomeric isocitrate dehydrogenase from Azotobacter vinelandii, SEQ ID NO: 2, C-terminal histidine tag (protein)
chain: MSTPKIIYTLTDEAPALATYSLLPIIKAFTGSSGIAVETRDISLAGRLIATFPEYLTDTQKISDDLAELGKLATTPDANIIKLPNISASVPQLKAAIKELQQQGYKLPDYPEEPKTDTEKDVKARYDKIKGSAVNPVLREGNSDRRAPLSVKNYARKHPHKMGAWSADSKSHVAHMDNGDFYGSEKAALIGAPGSVKIELIAKDGSSTVLKAKTSVQAGEIIDSSVMSKNALRNFIAAEIEDAKKQGVLLSVHLKATMMKVSDPIMFGQIVSEFYKDALTKHAEVLKQIGFDVNNGIGDLYARIKTLPEAKQKEIEADIQAVYAQRPQLAMVNSDKGITNLHVPSDVIVDASMPAMIRDSGKMWGPDGKLHDTKAVIPDRCYAGVYQVVIEDCKQHGAFDPTTMGSVPNVGLMAQKAEEYGSHDKTFQIPADGVVRVTDESGKLLLEQSVEAGDIWRMCQAKDAPIQDWVKLAVNRARATNTPAVFWLDPARAHDAQVIAKVERYLKDYDTSGLDIRILSPVEATRFSLARIREGKDTISVTGNVLRDYLTDLFPIMELGTSAKMLSIVPLMSGGGLFETGAGGSAPKHVQQFLEEGYLRWDSLGEFLALAASLEHLGNAYKNPKALVLASTLDQATGKILDNNKSPARKVGEIDNRGSHFYLALYWAQALAAQTEDKELQAQFTGIAKALTDNETKIVGELAAAQGKPVDIAGYYHPNTDLTSKAIRPSATFNAALAPLALEHHHHHH
modifications: C-terminal His tag; AvIDH protein

What was measured:
CgIDH = target: T1, CgIDH; experiment: Enzyme activity inhibitory effect by α-ketoglutarate on CgIDH; type: biochemical; conditions: 10 mM α-ketoglutarate added; 5 nM CgIDH
Experimental: (§1) In order to confirm an enzyme activity inhibitory effect by α-ketoglutarate, which is an enzyme reaction product of the recombinant protein produced in the present invention, a reaction product, in which 5 nM of CgIDH and 5 nM AvIDH were each added to a reaction solution containing 100 mM potassium phosphate buffer (pH 7.4), 0.8 mM manganese sulfate, 40 mM DL-isocitric acid, and 0.5 mM NADP, was prepared. Thereafter, α-ketoglutarate was added for each concentration to proceed the reaction as described in Example 5, and the degree of increase of NADPH was measured. Here, an experimental group to which α-ketoglutarate was not added was used as a control group.

AvIDH = target: T2, AvIDH; experiment: Enzyme activity inhibitory effect by α-ketoglutarate on AvIDH; type: biochemical; conditions: 20 mM α-ketoglutarate added; 5 nM AvIDH
Experimental: as §1

NADPH regeneration [1] = experiment: Specific activity analysis of recombinant IDH protein (NADPH increase measured by fluorescence); type: biochemical; conditions: 5 nM enzyme; for specific activity: 100 mM potassium phosphate buffer pH 7.4, 0.8 mM MnSO4, 0.8 mM DL-isocitric acid, 0.5 mM NADP+
Experimental: In order to confirm the degree of NADPH regeneration by the activity of the IDH recombinant protein, CgIDH and AvIDH were each added to a reaction solution containing 100 mM potassium phosphate buffer (pH 7.4), 0.8 mM manganese sulfate (MnSO4), 0.8 mM DL-isocitric acid, and 0.5 mM NADP+ so that the final concentrations were 5 nM, and the degree of increase of NADPH depending on the enzyme activity was measured with a spectrophotometer. When fluorescence was measured using a spectrophotometer, an excitation wavelength was set to 350 nm and an emission wavelength was set to 450 nm, and the measurement results are shown in FIG. 7.

NADPH regeneration [2] = experiment: Kinetic constant analysis of purified recombinant protein; type: biochemical; conditions: wild-type CgIDH and AvIDH parameters as control groups
Experimental: The analysis of kinetic properties related to an enzyme activity of the recombinant protein, that is, a kinetic constant, was performed by the following procedure.
The analysis of kinetic activity for each of the recombinant proteins purified in Example 2 was performed based on the method described in Chen, R. & Yang, H. Biochemistry and Biophysics, 383(2):238-245 (2000); and Watanabe, S. Microbiology 151(4):1083-1094 (2005).
Here, a Km (uM) value representing the affinity of the enzyme to the substrate as a reaction constant used in enzyme kinetics, a Kcat(S-1) value, which means the metabolic turnover number of the enzyme, and a Kcat/Km (S-1, M-1) value representing a reaction efficiency of the enzyme, were determined.

cytochrome P450 BM3 = cytochrome P450 BM3 (Priestia megaterium, UniProt P14779); experiment: Coupling reaction with cytochrome P450 BM3, HPLC analysis of hydroxylation product of substrate; type: biochemical, Bacillus megaterium; conditions: coupling reaction 5 min; control = NADPH itself added; CgIDH 10 nM or AvIDH 5 nM, 500 nM P450 BM3, 2 mM omeprazole
Sequence of cytochrome P450 BM3 (P14779 whole entry): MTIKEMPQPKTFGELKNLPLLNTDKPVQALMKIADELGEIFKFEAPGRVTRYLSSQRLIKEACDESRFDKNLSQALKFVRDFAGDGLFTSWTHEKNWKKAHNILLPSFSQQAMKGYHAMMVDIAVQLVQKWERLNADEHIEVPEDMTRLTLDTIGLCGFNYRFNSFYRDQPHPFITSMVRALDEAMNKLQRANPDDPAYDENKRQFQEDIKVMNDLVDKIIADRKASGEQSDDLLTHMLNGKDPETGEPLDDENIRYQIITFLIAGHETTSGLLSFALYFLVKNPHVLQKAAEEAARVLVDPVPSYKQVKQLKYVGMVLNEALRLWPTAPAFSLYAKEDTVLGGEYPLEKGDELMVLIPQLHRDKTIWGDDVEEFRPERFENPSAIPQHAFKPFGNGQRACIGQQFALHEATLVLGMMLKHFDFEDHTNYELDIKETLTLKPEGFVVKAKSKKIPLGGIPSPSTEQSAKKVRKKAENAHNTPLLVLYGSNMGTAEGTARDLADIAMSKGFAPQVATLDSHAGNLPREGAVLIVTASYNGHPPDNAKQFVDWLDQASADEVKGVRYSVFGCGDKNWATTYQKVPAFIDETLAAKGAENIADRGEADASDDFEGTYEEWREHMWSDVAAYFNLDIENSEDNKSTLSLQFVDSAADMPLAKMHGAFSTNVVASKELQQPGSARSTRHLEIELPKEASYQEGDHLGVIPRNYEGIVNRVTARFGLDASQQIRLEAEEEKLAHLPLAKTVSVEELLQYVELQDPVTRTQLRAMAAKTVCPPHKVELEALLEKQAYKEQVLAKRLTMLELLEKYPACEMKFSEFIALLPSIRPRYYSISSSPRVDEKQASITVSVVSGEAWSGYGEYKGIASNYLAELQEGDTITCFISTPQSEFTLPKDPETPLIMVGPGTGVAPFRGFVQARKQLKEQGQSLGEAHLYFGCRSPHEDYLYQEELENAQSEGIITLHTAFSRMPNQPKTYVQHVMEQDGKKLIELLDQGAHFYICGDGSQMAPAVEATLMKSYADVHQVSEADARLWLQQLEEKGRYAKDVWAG
Experimental: In the above reaction, in order to confirm that the activity of cytochrome P450 BM3 is maintained by substantial NADPH regeneration, and the hydroxylation reaction of omeprazole, which is one of the substrates, occurs, to 1 mL of a reaction solution containing 100 mM potassium phosphate buffer (pH 7.4), 0.8 mM manganese sulfate, 40 mM DL-isocitric acid, 0.5 mM NADP, and 2 mM omeprazole, CgIDH and cytochrome P450 BM3 were added so that the final concentrations were 10 nM and 500 nM, respectively, and AvIDH and cytochrome P450 BM3 were added so that the final concentrations were 5 nM and 500 nM, respectively, to prepare a reaction product.
The reaction mixture was recovered by 90 uL each time, mixed with 90 uL of methanol to stop the reaction, and then HPLC analysis was performed. Specific HPLC performance conditions are as follows: • HPLC was performed using an Alliance HPLC system (Waters). • A SunFire 18C column was used as a column • The amount of sample loading was set to 20 uL. • As a HPLC mobile phase, 30% acetonitrile was flowed at a flow rate of 1 mL/min, and an eluate was measured with ultraviolet (UV) light at 302 nm. • Analysis was performed using an Empower 3 (Waters) program. […]

[3] = Storage stability of recombinant protein; type: physicochemical; conditions: storage at 4° C. for 30 days; 5 nM enzyme
Experimental: In order to evaluate the stability of the recombinant protein produced in the present invention, after a certain period of time, each of the recombinant proteins stored at 4° C. was added to a reaction solution containing 100 mM potassium phosphate buffer (pH 7.4), 0.8 mM manganese sulfate, 40 mM DL-isocitric acid, and 0.5 mM NADP+ so that the final concentration was 5 nM, the reaction was proceeded as described in Example 5, and the degree of increase of NADPH was measured.

Molecule | reduction of enzyme activity (CgIDH) | reduction of enzyme activity (AvIDH) | enzyme activity (enzyme reaction slope) compared with AvIDH at the same amount of protein (NADPH regeneration [1]) | specific activity (NADPH regeneration [1]) | Kcat compared with the wild-types (NADPH regeneration [2]) | elution amount of 5′-hydroxyomeprazole based on the elution amount produced in the control group (cytochrome P450 BM3) | enzyme activity after storage [3]
O=C(O)CCC(=O)C(=O)O [α-ketoglutarate] | 30% | 30% |  |  |  |  | 
B1 |  |  | higher enzyme activity | 57 U/mg | slight decrease | 126% | did not decrease
B2 |  |  |  | 28 U/mg | slight decrease | 114% | did not decrease
